Experimental data as given in patent US20260007772A1.

Target: Neutrophil elastase enzyme (Neutrophil Elastase Colorimetric Drug Discovery Kit, Enzo Life Sciences) (UniProt P08246)
Assay: cell-based or functional assay

UniProt P08246, sequence (P08246 30-247 limits assumed): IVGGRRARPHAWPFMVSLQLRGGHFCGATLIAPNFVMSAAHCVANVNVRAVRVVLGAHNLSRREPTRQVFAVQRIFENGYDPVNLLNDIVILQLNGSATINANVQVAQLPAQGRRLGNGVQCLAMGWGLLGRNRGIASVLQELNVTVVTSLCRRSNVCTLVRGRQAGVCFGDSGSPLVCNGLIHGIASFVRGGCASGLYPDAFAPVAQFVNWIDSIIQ

Substance “endogenous A1AT of wild type mice (from UniProt O89094 168-257)” has an Average % Inhibition (Percent inhibition of Neutrophil Elastase in purified serum samples) of 95.6%.
